This assay concerns the target T1, human DLL3 (delta-like ligand 3), on the cell surface (human, UniProt Q9NYJ7 27-618).
T1 sequence: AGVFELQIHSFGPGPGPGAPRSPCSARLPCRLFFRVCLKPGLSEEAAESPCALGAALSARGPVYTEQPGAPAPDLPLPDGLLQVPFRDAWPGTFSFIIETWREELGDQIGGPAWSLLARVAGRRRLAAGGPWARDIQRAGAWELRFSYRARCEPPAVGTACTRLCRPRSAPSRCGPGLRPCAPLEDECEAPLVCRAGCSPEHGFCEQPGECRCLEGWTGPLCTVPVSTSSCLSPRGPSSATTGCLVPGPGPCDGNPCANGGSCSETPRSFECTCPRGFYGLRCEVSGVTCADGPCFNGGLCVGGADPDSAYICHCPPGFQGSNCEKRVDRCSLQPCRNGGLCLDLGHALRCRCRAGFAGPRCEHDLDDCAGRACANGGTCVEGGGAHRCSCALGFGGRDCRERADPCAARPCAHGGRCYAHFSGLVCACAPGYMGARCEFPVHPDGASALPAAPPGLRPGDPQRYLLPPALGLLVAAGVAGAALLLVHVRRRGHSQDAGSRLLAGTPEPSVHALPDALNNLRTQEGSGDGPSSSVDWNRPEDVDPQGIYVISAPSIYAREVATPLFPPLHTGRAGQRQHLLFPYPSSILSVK
Nature of the assay: cell-based or functional assay.

B1: SC16.34 (antibody, V domains shown)
VH: QIQLVQSGPELKRPGETVKISCKASGYTFTNYGMNWVKQAPGKGLKWMGWINTYTGDPTYADDFKGRFAFSLETSASTAYLQINNLKNEDTATYFCARIGGNSPSDYWGQGTSLTVSS
VL: SIVMTQTPKFLLVSAGDRVTITCKASQSVSNDVAWYQQKPGQSPKLLIYYASNRYSGVPDRFTGSGYGTDFTFTISTVQAEDLAVYFCQQDYSSPWTFGGGTKLEIK
For B1, the “EC50 of killing of OV26 (ovarian NET NTX tumor) cells with anti-mouse IgG Fab-saporin” value amounted to 5700 nM.

B2: SC16.15 (antibody, V domains shown)
VH: QVQLQQSGAELAKPGASVKMSCKASGYTFTRYWIHWIKQRPGQGLEWIGYINPTTVYTEFNQNFKDKATLTADKSSTTASMQLSSLTSEDSAVYYCARGGSNFFDYWGQGTTLTVSS
VL: DIQMTQSPASLAASVGETVAITCRASENIYYNLAWYQQKQGKSPQLLIYTANSLEDGVPSRFSGSGSGTQYSLKINSMQPEDSATYFCKQAYDVPPTFGGGTKLEIK
Regarding B2, the “EC50 of killing of OV26 (ovarian NET NTX tumor) cells with anti-mouse IgG Fab-saporin” value amounted to 140 nM.

The values above are taken from patent US20200138969A1 (published 2020).
